The results in this text go back to the DeepSol protein solubility set.

This series is described as follows: soluble on expression in E. coli; label from the status in PepcDB or PDB records.
Consider “MAAETKVQVSDPEAEFLNSKQETGYEWELFKENVRPLKRGRNVGILNHALKSHSDHQLRKNLIEKRRNLIEAIDEYEGDDPLSPWIECIKWVQEAFPPGGECSGLLVIYEQCVRKFWHSERYKDDLRYLKVWLEYAEHCADAEVIYKFLEVNEIGKTHAVYYIAYALHIEFKNKVKTANEIFNLGISRDAKPVEKLNDAYKKFMVRTMRRSNTADEEPKENNDLPSRSFGTLLSRGDNNARRQALGSSNPQAKKLKPNQSSKTPFAIYADAVSDTTSGNQPESDKSRPEFGSWLMLGGRAERNKENNSLPRKWASFKVPQKPIVRTVAAASASTFEVFVDEEECTEEEEEKKKNDETISSSSNVLPLNGGREIKKETELLRQNPLRHFPPNSFLR”, for which the “soluble on expression in E. coli” value was “not soluble”. Under “EASLTGAGATFPAPVYAKWADTYQKETGNKVNYQGIGSSGGVKQIIANTVDFGASDAPLSDEKLAQEGLFQFPTVIGGVVLAVNIPGLKSGELVLDGKTLGDIYLGKIKKWDDEAIAKLNPGLKLPSQNIAVVRRADGSGTSFVFTSYLAKVNEEWKNNVGTGSTVKWPIGLGGKGNDGIAAFVQRLPGAIGYVEYCYAKQNNLAYTKLISADGKPVSPTEENFANAAKGADWSKTFAQDLTNQKGEDAWPITSTTFILIHKDQKKPEQGTEVLKFFDWAYKTGAKQANDLDYASLPDSVVEQVRAAWKTNIKDSSGKPLY” stands “soluble”; under “MTGMSERERQVMKKLKEVVDKQRDEIRAKDRELGLKNEDVEALQQQQTRLMKINHDLRHRVTVVEAQGKALIEQKVELEADLQTKEQEMGSLRAELGKLRERLQGEHSQNGEEEPETEPVGEESISDAEKVAMDLKDPNRPRFTLQELRDVLHERNELKSKVFLLQEELAYYKSEEMEEENRIPQPPPIAHPRTSPQPESGIKRLFSFFSRDKKRLANTQRNVHIQESFGQWANTHRDDGYTEQGQEALQHL”, “not soluble”; under “MKALTLKVFYENSDPNKSSSKQAKYLAIADALRKAIRERQIAPTEALPSARKLAQQLSVNRHTIMAALAELVAQGWVEVRERSGYRVVENLPIQGSRTINKVAKTPQSFDWKFRVKQTFAVTPKVKASEYPYNFSGGQPDIRKFPFDEFKSHFSQTCQRPKIDDLSYGDSRGEAELIEEIATYLRRVRSITDKELMICNGSQEALYMISQLLLQPGDKVAVEQLGYPPAWAAFERTGATLIAVKQDERGINPEHLAQVFAKGKVKLLYLTPLHQYPTTVSLDISRRMQIYQLAVQYGVAIVEDDYDHEFHYDSQPIAPMAADDPAGLVIYISTFSKLMFGGARIGYVVANNALIEQVAAYKMVMNHKCNVLVQQAVAKWMQQGGFEAHLRRMTRLYQKRRDFMVQQLRSFQDKGLPIHFEVPAGGMAIWLDTGKSIIGLKEKLLPQQVYLQTEVEFSRFNELPDDLPRTKYRFIRLGFAAMNEAEVTQGLDIVMNTLYGLVSE”, “not soluble”.

For the sequence “MRAELNQGLIDFLKASPTPFHATASLARRLEAAGYRRLDERDAWHTETGGRYYVTRNDSSLIAIRLGRRSPLESGFRLVGAHTDSPCLRVKPNPEIARNGFLQLGVEVYGGALFAPWFDRDLSLAGRVTFRANGKLESRLVDFRKAIAVIPNLAIHLNRAANEGWPINAQNELPPIIAQLAPGEAADFRLLLDEQLLREHGITADVVLDYELSFYDTQSAAVVGLNDEFIAGARLDNLLSCHAGLEALLNAEGDENCILVCTDHEEVGSCSHCGADGPFLEQVLRRLLPEGDAFSRAIQRSLLVSADNAHGVHPNYADRHDANHGPALNGGPVIKINSNQRYATNSETAGFFRHLCQDSEVPVQSFVTRSDMGCGSTIGPITASQVGVRTVDIGLPTFAMHSIRELAGSHDLAHLVKVLGAFYASSELP”, the “soluble on expression in E. coli” value was “not soluble”. With “MSLKVQGYANVVTLPNVTGRVIIVGDIHGCRAQLEDLLRAVSFKQGSDTLVAVGDLVNKGPDSFGVVRLLKRLGAYSVLGNHDAKLLKLVKKLGKKECLKGRDAKSSLAPLAQSIPTDVETYLSQLPHIIRIPAHNVMVAHAGLHPQRPVDRQYEDEVTTMRNLIEKEQEATGGVTLTATEETNDGGKPWASMWRGPETVVFGHDARRGLQEQYKPLAIGLDSRCVYGGRLSAAVFPGGCIISVPGWNGASAAAEGHHHHHH”, the “soluble on expression in E. coli” value is on record as “soluble”. Under “MEHIEIRVSATGSMSSFHALCSFHQWPINVACSCWLSHCYRIYSLYPPQLVSCSDRLSTSGNTNAGAEFVTE” stands “soluble”; under “MGSDKIHHHHHHMAVQFELYKTPMPKEKKNKTRYHARPVSFETVNTEKLAYRIHDRSTLRVSDIISTLEELKNEVAQCLLEGKKVHVDGLGFFQVTLSCEEEIRNPKDKRVHRVKLKAIKFKADKELKGELCHMKFQRSKIRPHSANLSEVEIDMKLTEYFAENQIITRKDFQYLCGMTQITAYRHIKRLMAEKKLQNKGTIYQPIYTPVPGNYRVSVDLKYKEQ”, “not soluble”.

For the sequence “MGSDKIHHHHHHMIETQKEQERALLVGVELQQTDNFDMSMEELASLAKTAGALVKGVYTQKREKYDSKTFVGSGKLDEIAQMVEADEIDTVIVNNRLTPRQNVNLEEILGVKVIDRMQLILDIFAMRARSHEGKLQVHLAQLKYMLPRLVGQGIMLSRQAGGIGSRGPGESQLELNRRSIRNQIHDIERQLKTVEKNRATVRERRLQSGVFKIGLIGYTNAGKSTIMNVMTDKRQYEADELFATLDATTKQINLADKFNVTLTDTVGFIQDLPTELISAFKSTLEESMNVDLLLHIIDASDPNHSEQEQVVLDILKDLDMLDIPRLALYNKLDKTDDSFTPSQFPHVMLSAKDENAKGHIQMMVLAKIKTMFERFEVRVPLAESYKLHDLATLALIENRTYEEDVEVVSGYIASANKWKLEEFYDGLS”, the “soluble on expression in E. coli” value was “not soluble”. Turning to “MRMILMFDMPTETAEERKAYRKFRKFLLSEGFIMHQFSVYSKLLLNNTANNAMIGRLKVNNPKKGNITLLTVTEKQFARMVYLHGERNTSVANSDSRLVFLGDSYDQDLEHHHHHH”, the “soluble on expression in E. coli” value is recorded as “not soluble”. Next, “MHALHFSASDKAALYREVLPQIESVVADETDWVANLANTAAVLKEAFGWFWVGFYLVDTRSDELVLAPFQGPLACTRIPFGRGVCGQAWAKGGTVVVGDVDAHPDHIACSSLSRSEIVVPLFSDGRCIGVLDADSEHLAQFDETDALYLGELAKILEKRFEASRQAV”: “soluble”; “MGSDKIHHHHHHMPKLVTWMNNQRVGELTKLANGAHTFKYAPEWLASRYARPLSLSLPLQRGNITSDAVFNFFDNLLPDSPIVRDRIVKRYHAKSRQPFDLLSEIGRDSVGAVTLIPEDETVTHPIMAWEKLTEARLEEVLTAYKADIPLGMIREENDFRISVAGAQEKTALLRIGNDWCIPKGITPTTHIIKLPIGEIRQPNATLDLSQSVDNEYYCLLLAKELGLNVPDAEIIKAGNVRALAVERFDRRWNAERTVLLRLPQEDMCQTFGLPSSVKYESDGGPGIARIMAFLMGSSEALKDRYDFMKFQVFQWLIGATDGHAKNFSVFIQAGGSYRLTPFYDIISAFPVLGGTGIHISDLKLAMGLNASKGKKTAIDKIYPRHFLATAKVLRFPEVQMHEILSDFARMIPAALDNVKTSLPTDFPENVVTAVESNVLRLHGRLSREYGSK”: “not soluble”. On to “MPNYDATHATSTETIHYVNEDGDQVFEDGGGKLDFTRTVTIDDVTNEVVEYGEWTPVTDDEFAAVTSPDKDGYTPDTSEVAAQKPDMTDGPDGTVKDVEVTVTYTANPAVATITYVDDDENGKTVKTLEHHHHHH”, for which the “soluble on expression in E. coli” value was “soluble”.

Turning to “MGFDLFGKIEDILKELPQDKEASVEDFEEERIKNCVPRIHKELREGFSPLEAGVLPYAISLNKGCYVGQEAIARVYFRGRTPRVLTKFEVIEQVKEEEKILEGNKAIGLITSVSPSGKMALGYILRAKFEKGKEYQTESGKVKAKGVCEDGSTLEHHHHHH”, the “soluble on expression in E. coli” value is “not soluble”.

On to “GMGIHQYFQSLSDLENIYRCPGKFKYQEHSVAEHSYKVTSIAQFFGAVEEDAGNEVNWRALYEKALNHDYSELFIGDIKTPVKYATTELREMLSEVEESMTKNFISREIPATFQPIYRHLLKEGKDSTLEGKILAISDKVDLLYESFGEIQKGNPENIFVEIYSEALATIYEYREMASVKYFLKEILPDMLAEKGIEKTELPQLTTEITTKALRDE”, for which the “soluble on expression in E. coli” value was “soluble”. Take “MKEKYRHSLKARFFLKDNFLKSEPVFWFHACSYGEVKSLEPIIHALKEPILISVTTNTGFELAAQTYQHSKHIEVRYLPFETLLFAWKKNLKRLKTLVVTEAELWFNVFDTAQKLGAKTMLINARISVRSYPKYQRFSFFYALLFKRIDLILAQSKEDKKRLLNLGAKKVVDFLNIKRFSKPLEHHHHHH”: the “soluble on expression in E. coli” value is listed as “not soluble”. As for “MSLWPQMQYRQLQLAREKLLERLARKRNSTVITLIHRQESIGLFGIPVYRFISIEDSEEVLRAIRMAPKDKPIDLIIHTPGGLVLAATQIAKALKDHPAETRVIVPHYAMSGGTLIALAADKIIMDPHAVLGPVDPQLGQYPAPSIVRAVEKKGVDKVDDQTLILADVAEKAIRQVRDFIFNLLKDKYGEEKAKELAQVLTEGRWTHDYPITVEEAKKLGLNVSTDVPEEVYALMELYKQPIRQRGTVEFVPYPMKQEGKHEGHHHHHH”, the “soluble on expression in E. coli” value is listed as “soluble”.

As for “MFWRSIPSLQTLLAAGMGLLMLEIVMAHQPAQAESCTVDPFGSEVCLPDSTPEEPDKPKRSNQSKKSNKPDKSKRMVIVPSCFGPCTQFPPAPPYRQFQEVMEEAALKATPDATPEPRPAEPLRPLWFKSDQLDDVEAETYLERTLDRNDMAQLNAVGIEADTDADGMVITVDGLSYGEVLEPHGLLFTNEVNEPGLNAWVRGFGGGSSNGAAGDRYANFSNGGSQIGFDIPINDETRIGLFGTYAVMNGTDGARGSWDSDGWGGGAYAEYWTSDFYLRGMVSAGGYDGEHRRKIDGETAKGDRSGNSWTGVLNIGAPLQSGDWIIEPQAQLSYTNTSLDKFSEHGANRRDRLRFHEMEVDQLGSELSVKFAIPIRDGERSLLLPSLRVGWAADWGMSGDHQKVSYLESGKSQRWDVNGNDDHAALVELGLDYTTFNFQDTSMGVYARGGGLLWAGNRGTSWQVQGGLNFKF”, the “soluble on expression in E. coli” value was “not soluble”.

Regarding “MASMTGGQQMGRGMAGPEIVKLKKILREKAVPPGTEVPLDVMRKGMEKVAFKAADDIQVEQVTVAGCAAEWVRAPGCQAGKAILYLHGGGYVMGSINTHRSMVGEISRASQAAALLLDYRLAPEHPFPAAVEDGVAAYRWLLDQGFKPQHLSISGDSAGGGLVLAVLVSARDQGLPMPASAIPISPWADMTCTNDSFKTRAEADPMVAPGGINKMAARYLNGADAKHPYASPNFANLKGLPPLLIHVGRDEVLLDDSIKLDAKAKADGVKSTLEIWDDMIHVWHAFHPMLPEGKQAIVRVGEFMREQWAALAAALEHHHHHH”, the “soluble on expression in E. coli” value was “soluble”.

As to “MHLLPELASHHAVSIPELLVSRDERQARQHAWLKHHPVPLVSFTVVAPGPIKDSEVTRRIFNHRVTALRALATKQGWQIQEQAALVSASGPEGMLSIAAPARDLKLATIELEHSHPLGRLWDIDVLTPEGEILSRRDYSLRLAAACCASKAQPSARVEKPIN”, the “soluble on expression in E. coli” value is given as “not soluble”.
